Data published in US20240016900.

Molecular target: Human type I collagen, P02452
Sequence (P02452 162-1218, chain 1 of 2): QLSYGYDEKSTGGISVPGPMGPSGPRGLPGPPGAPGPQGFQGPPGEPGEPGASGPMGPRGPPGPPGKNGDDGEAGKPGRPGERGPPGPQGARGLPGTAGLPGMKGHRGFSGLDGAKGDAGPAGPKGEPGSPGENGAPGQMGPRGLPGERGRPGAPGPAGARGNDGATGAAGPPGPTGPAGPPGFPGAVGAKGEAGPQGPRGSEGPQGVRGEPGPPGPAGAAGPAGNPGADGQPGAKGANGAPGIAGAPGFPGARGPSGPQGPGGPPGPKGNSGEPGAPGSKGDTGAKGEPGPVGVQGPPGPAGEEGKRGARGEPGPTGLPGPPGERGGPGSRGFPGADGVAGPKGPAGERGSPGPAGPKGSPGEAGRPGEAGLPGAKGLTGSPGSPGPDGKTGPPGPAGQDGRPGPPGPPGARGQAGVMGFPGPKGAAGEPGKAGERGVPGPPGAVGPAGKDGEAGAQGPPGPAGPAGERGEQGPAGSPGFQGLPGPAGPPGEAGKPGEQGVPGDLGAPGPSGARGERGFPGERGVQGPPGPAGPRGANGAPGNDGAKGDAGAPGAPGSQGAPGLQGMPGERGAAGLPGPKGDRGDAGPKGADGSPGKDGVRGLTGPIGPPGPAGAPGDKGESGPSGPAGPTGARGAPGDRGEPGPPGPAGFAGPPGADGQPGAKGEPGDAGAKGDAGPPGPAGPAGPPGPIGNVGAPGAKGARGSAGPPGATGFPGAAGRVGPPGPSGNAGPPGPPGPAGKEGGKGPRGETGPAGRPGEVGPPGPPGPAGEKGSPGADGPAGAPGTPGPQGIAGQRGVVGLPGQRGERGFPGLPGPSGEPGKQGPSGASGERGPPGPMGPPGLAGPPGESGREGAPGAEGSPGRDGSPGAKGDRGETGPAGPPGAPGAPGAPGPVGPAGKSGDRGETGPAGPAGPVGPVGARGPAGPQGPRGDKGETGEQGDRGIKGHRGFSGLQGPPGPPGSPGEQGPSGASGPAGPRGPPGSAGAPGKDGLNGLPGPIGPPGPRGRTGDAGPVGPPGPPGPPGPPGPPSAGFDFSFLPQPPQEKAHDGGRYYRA
Sequence (chain, as listed by the source, chain 2 of 2): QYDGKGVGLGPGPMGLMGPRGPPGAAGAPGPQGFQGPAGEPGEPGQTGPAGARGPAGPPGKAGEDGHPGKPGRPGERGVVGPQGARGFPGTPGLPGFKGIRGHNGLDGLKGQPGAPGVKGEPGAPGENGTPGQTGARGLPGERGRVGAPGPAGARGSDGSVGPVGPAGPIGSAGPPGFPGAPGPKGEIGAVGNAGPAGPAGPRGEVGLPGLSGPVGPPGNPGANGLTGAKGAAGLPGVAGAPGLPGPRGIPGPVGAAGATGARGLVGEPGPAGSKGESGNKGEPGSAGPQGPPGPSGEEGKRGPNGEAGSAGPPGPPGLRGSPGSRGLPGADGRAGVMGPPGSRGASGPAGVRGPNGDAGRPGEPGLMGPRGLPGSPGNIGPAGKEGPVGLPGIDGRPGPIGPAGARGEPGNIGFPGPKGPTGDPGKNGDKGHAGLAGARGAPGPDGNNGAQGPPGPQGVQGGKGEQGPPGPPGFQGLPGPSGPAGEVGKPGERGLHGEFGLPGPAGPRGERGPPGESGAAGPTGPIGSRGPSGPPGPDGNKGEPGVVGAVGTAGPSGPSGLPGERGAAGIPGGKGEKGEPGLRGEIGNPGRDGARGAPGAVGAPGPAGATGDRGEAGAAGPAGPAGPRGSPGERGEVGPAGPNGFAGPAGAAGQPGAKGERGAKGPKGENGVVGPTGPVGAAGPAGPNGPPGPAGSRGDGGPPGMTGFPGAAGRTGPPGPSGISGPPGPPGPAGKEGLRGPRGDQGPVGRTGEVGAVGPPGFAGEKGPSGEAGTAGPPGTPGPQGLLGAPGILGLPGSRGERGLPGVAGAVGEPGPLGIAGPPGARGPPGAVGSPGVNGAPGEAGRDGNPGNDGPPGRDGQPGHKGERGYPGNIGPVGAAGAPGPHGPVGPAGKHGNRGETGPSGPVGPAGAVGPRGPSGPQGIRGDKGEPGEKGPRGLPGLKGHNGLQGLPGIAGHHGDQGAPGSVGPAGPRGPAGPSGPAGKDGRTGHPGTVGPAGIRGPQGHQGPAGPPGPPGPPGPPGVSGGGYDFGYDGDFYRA

B1: MMP1 (matrix metalloproteinase 1) (protein)
chain: FVLTEGNPRWEQTHLTYRIENYTPDLPRADVDHAIEKAFQLWSNVTPLTFTKVSEGQADIMISFVRGDHRDNSPFDGPGGNLAHAFQPGPGIGGDAHFDEDERWTNNFREYNLHRVAAHELGHSLGLSHSTDIGALMYPSYTFSGDVQLAQDDIDGIQAIYGRSQNPVQPIGPQTPKACDSKLTFDAITTIRGEVMFFKDRFYMRTNPFYPEVELNFISVFWPQLPNGLEAAYEFADRDEVRFFKGNKYWAVQGQNVLHGYPKDIYSSFGFPRTVKHIDAALSEENTGKTYFFVANKYWRYDEYKRSMDPGYPKMIAHDFPGIGHKVDAVFMKDGFFYFFHGTRQYKFDPKTKRILTLQKANSWFNCRKN
collagen fiber, fibril and network structure on a substrate, by atomic force microscopy: MMP-treated samples, however, showed a substantial amount of disorganized collagen and little remaining fiber/fibril formation | collagen fiber, fibril and network structure on a substrate, by scanning electron microscopy: MMP treatment of the substrate resulted in a readily observable amount of disruption of the collagen fibers, fibrils and network
